{"source": "patent US20070202116A1", "about": "“Treatment of micro-organism infection” (priority 2001, published 2007)", "molecules": {"B1": {"name": "Aurograb: human genetic recombinant antibody (scFv with histidine tag, SEQ ID NO: 2) binding GrfA, a staphylococcal ABC transporter protein (protein)", "scFv": "MAKVQLLQSATEVKKPGASVKVSCKAYGYTFTDYGITWVRQAPGQGLEWMGWISAYNGYTNYAQKFQDRITMTTDASTSTAYMELRSLRPDDTAVLYCARDREDASLLRDGHWGQGTLVTVSSGGGGSGGGGSGGGGSGGGGSETTLTQSPGTLSLSPGERATLSCRASQIVSSSYLAWYQQKPGQAPRLLIYGASSRATGIPDRFSGSGSGTDFTLTISKLEPEDFAVYYCQHYGSSSPWTSRPRDQSDIKRAAALEHHHHHH", "modifications": "histidine tag; human single chain (scFv) recombinant antibody"}}, "key": {"[1]": {"test": "Storage stability and iv fluid compatibility of Aurograb", "type": "physicochemical", "method": "The lyophilised drug is stored in glass vials at 4° C. in the dark. Overnight transport at ambient temperatures is acceptable. Avoid prolonged exposure to bright light or excessive humidity. No change in Aurograb activity after storage at 4° C. (3 months) has been observed.\nAfter reconstitution with water, Aurograb must be stored at 4° C. and should be used within 14 hours.\nSaline for iv use is compatible with reconstituted Aurograb (at a 50:50 dilution)."}, "human blood": {"tested_on": "human blood", "test": "Blood compatibility study (haemolysis)", "conditions": "human blood, 37° C., 1 hour; 0.1 mg/ml", "method": "This study was carried out by Biochemical Pharmacology department at Inveresk Research, Scotland, in order to assess the suitability of Aurograb for intravenous administration.\nBlood samples were taken from healthy human volunteers, transferred to tubes containing Aurograb, Aurograb vehicle, saponin or saline and incubated at 37° C. for 1 hour. After centrifugation, the amount of haemoglobin in the supernatant was then assessed to determine haemolysis."}, "[2]": {"conditions": "mice", "method": "The pharmacokinetic (PK) characteristics of Aurograb have been studied in mice. A murine model was used because efficacy and dose ranging studies have been performed in this species as were the repeat dose toxicology studies. Mice were given a single high dose as an iv bolus and then examined in duplicate for blood levels and organ distribution. Urine samples were also analysed. Samples were analysed for functional activity, measured by ELISA (blood samples only) and drug concentration (SDS PAGE/immunoblots)."}, "EMRSA-15": {"tested_on": "EMRSA-15", "test": "Data Set 1: murine sub-lethal infection, Aurograb alone", "type": "in vivo, S. aureus", "source_text": "The murine model of staphylococcal infection is widely used and is routinely used in the assessment of antimicrobial drugs. It is a good predictor of efficacy in infected humans since S. aureus is introduced intravenously to create a bacteraemia, from which the pathogen spreads to other organs, including the kidney, liver and spleen.\nMethod: 20 female CD-1 mice were given a sub-lethal challenge (1.3×10^7 cfu) of a methicillin-resistant, vancomycin-sensitive strain of S. aureus (EMRSA-15, Typed Hospital Isolate, Central Manchester Healthcare Trust) in 100 μl iv bolus (all iv injections given via the lateral tail vein). 1 hour later, two groups of 10 mice, received, as 100 μl iv bolus: • 1. formulation buffer (Arginine-Urea), as negative control or • 2. Aurograb (2.0 mg/kg) in formulation buffer.\nAll animals were sacrificed after a further 48 h and viable cfu per gram of organ were determined."}, "[3]": {"conditions": "CD-1 mice, 1.3×10^7 cfu EMRSA-15 iv, Aurograb 2 mg/kg iv 1 hour later, 48 h"}}}
{"molecule": "B1", "values": [{"measurement": "Activity after reconstitution with water", "setting": "[1]; left at room temperature", "value": "slowly deteriorate"}, {"measurement": "Change in activity after storage", "setting": "[1]; lyophilised drug, 4° C., 3 months", "value": "No change"}, {"measurement": "Compatibility with saline for iv use", "setting": "[1]; reconstituted Aurograb, 50:50 dilution", "value": "compatible"}, {"measurement": "Compatibility with 20% glucose and sodium bicarbonate buffer", "setting": "[1]; reconstituted Aurograb, reduction in ELISA activity", "value": "less compatible"}, {"measurement": "Haemolysis classification (ASTM F756-93)", "setting": "human blood", "value": "non-haemolytic"}, {"measurement": "Time by which all organs were cleared", "setting": "[2]; lungs, brain, liver, spleen, heart, kidney and blood", "value": "≤ 24", "unit": "h"}, {"measurement": "Blood levels", "setting": "[2]; single intravenous bolus injection 10 mg/kg", "value": "satisfactory blood levels"}, {"measurement": "Kidney Log cfu/g tissue", "setting": "EMRSA-15; [3]", "value": "7.20 ± 1.15", "unit": "Log cfu/g tissue"}, {"measurement": "Liver Log cfu/g tissue", "setting": "EMRSA-15; [3]", "value": "3.63 ± 0.68", "unit": "Log cfu/g tissue"}, {"measurement": "Spleen Log cfu/g tissue", "setting": "EMRSA-15; [3]", "value": "3.79 ± 0.82", "unit": "Log cfu/g tissue"}, {"measurement": "Reduction in viable organisms found in all three organs", "setting": "EMRSA-15; kidney, liver and spleen, Aurograb 2 mg/kg vs formulation buffer", "value": 10, "unit": "fold"}]}
